According to PMC5058748, “ZNF224, Krüppel like zinc finger protein, induces cell growth and apoptosis-resistance by down-regulation of p21 and p53 via miR-663a”:
Residue numbers refer to the chain shown, from its start.

B1: CAGCTTC hairpin oligo (dsDNA)
DNA 1: CCAAGAAGCTGAAAGGGAAAAACCCTTTCAGCTTCTTGG
DNA 2: CCAAGAAGCTGAAAGGGTTTTTCCCTTTCAGCTTCTTGG
B2: CAGCGTC hairpin oligo (dsDNA)
DNA 1: B1 DNA 1 with A7C, T33G
DNA 2: B1 DNA 2 with A7C, T33G
B3: GCAGCAA hairpin oligo (dsDNA)
DNA 1: CCAAGCAGCAAAAAGGGAAAAACCCTTTTTGCTGCTTGG
DNA 2: CCAAGCAGCAAAAAGGGTTTTTCCCTTTTTGCTGCTTGG

Molecular target: FLAG-ZNF224 (UniProt Q9NZL3 1-707)
Test: SPR; protein immobilized, oligo as analyte; SPR: 1x PBS, Reichert SR7500DC, CMDH chip, oligo 0-10 uM; pH and temperature not stated; ELISA buffer not in material
Settings: protein: recombinant; tags: 3xFLAG; label: 5'-biotin (ELISA oligos); hairpin

Sequence of FLAG-ZNF224 (Q9NZL3 whole entry): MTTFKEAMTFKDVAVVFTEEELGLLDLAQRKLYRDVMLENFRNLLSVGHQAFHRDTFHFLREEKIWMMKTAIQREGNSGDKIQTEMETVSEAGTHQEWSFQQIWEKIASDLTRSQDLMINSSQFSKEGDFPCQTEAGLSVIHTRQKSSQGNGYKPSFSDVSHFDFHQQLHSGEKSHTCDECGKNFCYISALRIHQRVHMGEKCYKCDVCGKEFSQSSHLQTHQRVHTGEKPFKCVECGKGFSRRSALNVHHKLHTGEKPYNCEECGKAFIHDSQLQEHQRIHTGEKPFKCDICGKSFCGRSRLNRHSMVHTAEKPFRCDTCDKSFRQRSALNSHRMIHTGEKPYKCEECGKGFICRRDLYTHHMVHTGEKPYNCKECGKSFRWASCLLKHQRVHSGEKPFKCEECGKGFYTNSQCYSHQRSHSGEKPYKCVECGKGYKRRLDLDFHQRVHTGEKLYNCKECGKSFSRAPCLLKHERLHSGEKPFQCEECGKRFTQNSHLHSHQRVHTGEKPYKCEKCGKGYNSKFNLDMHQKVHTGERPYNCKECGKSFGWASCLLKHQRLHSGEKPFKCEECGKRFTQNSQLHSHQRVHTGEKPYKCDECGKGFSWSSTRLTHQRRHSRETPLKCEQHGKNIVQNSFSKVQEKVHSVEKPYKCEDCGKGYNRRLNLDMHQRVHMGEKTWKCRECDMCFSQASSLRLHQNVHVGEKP

Binder | Kd
B1 | 1250 ± 60 nM
B2 | 2000 ± 100 nM
B3 | 420 ± 30 nM
